From publication PMC7455559

Biological target: connexin-50 (native, sheep lens) (sheep) (UniProt P55917)
Test: cryo-EM structure; native Cx46/50 intercellular channels from sheep lens in a pair of MSP1E1/DMPC nanodiscs; 20 mM HEPES pH 7.4, 150 mM NaCl; single-particle reconstruction with D6 symmetry, 1.90 Å (2.3 Å without symmetry); the two isoforms could not be told apart by image classification

subunits in the intercellular channel (Cx46 and Cx50 together): 12
Substance: connexin-46 (native, sheep lens) (from UniProt Q9TU17 1-413) (natural protein)
